Publication PMC6687101

Molecular target: HBV envelope proteins (HBs; L, M and S forms) on HBV virions and subviral particles (hepatitis B virus) (UniProt P03138)
Assay: co-IP; 50 µg apoE mAb23 or anti-HBs coupled to protein G agarose, mixed with 10 µL CsCl-purified HBV (fraction 7) at 4 °C overnight; HBcAg detected by WB and HBV DNA by qPCR (input = 100%); normal mouse IgG as control

HBV core protein (from UniProt P03146 1-183) (natural protein)
percent of HBV precipitated through HBs (HBV DNA by qPCR): > 95%
